One protein from article PMC11732463 can be followed below.

The nature of series [1]: Western blot of microsomal fractions. The following applies: glycan lost; control: WT CerS6 microsomes. Background: Immunoblotting shows a protein as a band on a membrane.
Series [2] can be described thus: in vitro microsomes, NBD-sphingosine + C16:0-CoA, HPLC. The following applies: glycan lost; control: WT CerS6 microsomes.
Series [3] in a line: in situ 17C-sphingosine labeling, LC/MS of 17C-Sph-C16:0-ceramide. The following applies: glycan lost; control: WT CerS6 in CerS6 KO HCT116.

B1: ceramide synthase 6 (CerS6): N18A (protein)
parent chain: MAGILAWFWNERFWLPHNVTWADLKNTEEATFPQAEDLYLAFPLAFCIFMVRLIFERFVAKPCAIALNIQANGPQIAPPNAILEKVFTAITKHPDEKRLEGLSKQLDWDVRSIQRWFRQRRNQEKPSTLTRFCESMWRFSFYLYVFTYGVRFLKKTPWLWNTRHCWYNYPYQPLTTDLHYYYILELSFYWSLMFSQFTDIKRKDFGIMFLHHLVSIFLITFSYVNNMARVGTLVLCLHDSADALLEAAKMANYAKFQKMCDLLFVMFAVVFITTRLGIFPLWVLNTTLFESWEIVGPYPSWWVFNLLLLLVQGLNCFWSYLIVKIACKAVSRGKVSKDDRSDIESSSDEEDSEPPGKNPHTATTTNGTSGTNGYLLTGSCSMDD
On to B1, for which, in series [1], the expression_or_secretion entry is “increases”. For the same protein, the enzymatic_activity result is on record as “decreases, N18A CerS6 activity is not statistically different than that of the LacZ microsomes” in series [2] and “decreases, was approximately equal to that of LacZ expressing cells” in series [3].
